Measured values published in paper PMC3463815 (Scientific Reports, 2012).

Target: T1, VEGF_(34-121), 88-residue VEGF fragment displayed on S. carnosus (Homo sapiens)
T1 chain: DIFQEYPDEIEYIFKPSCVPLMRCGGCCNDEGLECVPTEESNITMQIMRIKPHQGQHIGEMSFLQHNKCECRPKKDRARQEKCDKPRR
Experiment: flow cytometry on cells

binding result: binds
B1: Avastin (antibody, V domains shown)
VH: EVQLVESGGGLVQPGGSLRLSCAASGYTFTNYGMNWVRQAPGKGLEWVGWINTYTGEPTYAADFKRRFTFSLDTSKSTAYLQMNSLRAEDTAVYYCAKYPHYYGSSHWYFDVWGQGTLVTVSS
VL: DIQMTQSPSSLSASVGDRVTITCSASQDISNYLNWYQQKPGKAPKVLIYFTSSLHSGVPSRFSGSGSGTDFTLTISSLQPEDFATYYCQQYSTVPWTFGQGTKVEIK
